Data set [1] deals with type I collagenase in activated conditioned medium from TPA-treated rabbit synovial fibroblasts (rabbit) (UniProt P13943). In words: cell-based or functional assay.
In data set [2] the test system is peptide 1 (19 kDa) from plasmin digestion of CHO-derived human MI.
For data set [3], the system named is peptide 3 (13.5 kDa) from plasmin digestion of CHO-derived human MI.
Data set [4] has as its target CHO cell-derived recombinant human metalloproteinase inhibitor (MI).
Data set [5] has as its target E. coli-derived recombinant human metalloproteinase inhibitor (MI).

peptide 3 (13.5 kDa) from plasmin digestion of CHO-derived human MI, sequence (chain, as listed by the source): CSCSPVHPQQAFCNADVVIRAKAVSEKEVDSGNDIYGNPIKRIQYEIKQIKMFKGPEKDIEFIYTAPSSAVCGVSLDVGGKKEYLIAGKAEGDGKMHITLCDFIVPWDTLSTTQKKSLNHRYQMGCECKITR

As to “bovine peak II-derived metalloproteinase inhibitor (from UniProt P20414 24-207)”, the Specific activity (units/mg), radiolabeled collagen film collagenase inhibition assay in data set [1] was determined as 1780 units/mg. As to “gelatinase(s) in activated conditioned medium from TPA-treated rabbit synovial fibroblasts”, the “SDS-gelatin PAGE of a plasmin digest of MI” value in data set [2] and in data set [3] was “These peptides retained their anticollagenase activity as shown by the SDS-gelatin PAGE” throughout.

B1: human plasmin (protein)
chain: KVYLSECKTGNGKNYRGTMSKTKNGITCQKWSSTSPHRPRFSPATHPSEGLEENYCRNPDNDPQGPWCYTTDPEKRYDYCDILECEEECMHCSGENYDGKISKTMSGLECQAWDSQSPHAHGYIPSKFPNKNLKKNYCRNPDRELRPWCFTTDPNKRWELCDIPRCTTPPPSSGPTYQCLKGTGENYRGNVAVTVSGHTCQHWSAQTPHTHNRTPENFPCKNLDENYCRNPDGKRAPWCHTTNSQVRWEYCKIPSCDSSPVSTEQLAPTAPPELTPVVQDCYHGDGQSYRGTSSTTTTGKKCQSWSSMTPHRHQKTPENYPNAGLTMNYCRNPDADKGPWCFTTDPSVRWEYCNLKKCSGTEASVVAPPPVVLLPDVETPSEEDCMFGNGKGYRGKRATTVTGTPCQDWAAQEPHRHSIFTPETNPRAGLEKNYCRNPDGDVGGPWCYTTNPRKLYDYCDVPQCAAPSFDCGKPQVEPKKCPGRVVGGCVAHPHSWPWQVSLRTRFGMHFCGGTLISPEWVLTAAHCLEKSPRPSSYKVILGAHQEVNLEPHVQEIEVSRLFLEPTRKDIALLKLSSPAVITDKVIPACLPSPNYVVADRTECFITGWGETQGTFGAGLLKEAQLPVIENKVCNRYEFLNGRVQSTELCAGHLAGGTDSCQGDSGGPLVCFEKDKYILQGVTSWGLGCARPNKPGVYVRVSRFVTWIEGVMRNN
Regarding B1, the “plasmin conversion of the 52-kDa proenzyme to the 46-kDa intermediate (SDS-PAGE)” value in data set [4] is on record as “The addition of MI had no effect on the conversion of the 52-kDa proenzyme to the 46-kDa intermediate (lane 4)”.

B2: plasmin-treated rabbit fibroblast interstitial procollagenase (46-kDa intermediate) (protein)
chain: GNGLAVEKLKQMQEFFGLKVTGKPDAETLKMMKQPRCGVPDVAQFVLTPGNPRWEQTHLTYRIENYTPDLSRADVDNAIEKAFQLWSNVTPLTFTKVSKGQADIMISFVRGDHRDNSPFDGPEGQLAHAFQPGLGIGGDVHFDEDDRWTKDFRNYNLYRVAAHELGHSLGLSHSTDIGALMYPNYMFSGDVQLAQDDIDGIQAIYGPSQNPSQPVGPQTPKVCDSKLTFDAITTIRGEIMFFKDRFYMRANPYYSEVELNFISVFWPHLPNGLQAAYEVAHRDEILFFKGNKYWTVQGQNELPGYPKDIHSSFGFPRSVNHIDAAVSEEDTGKTYFFVANKYWRYDEYKRSMDAGYPKMIEYDFPGIGNKVDAVFKKDGFFYFFHGTRQYKFDPKTKRILTLQKANSWFNCRKN
Take B2: the “conversion of the 46-kDa intermediate to the 42-kDa active enzyme at 37° C. (SDS-PAGE); 27 pmol MI, 16 pmol procollagenase” value in data set [4] was “the conversion of the 46-kDa intermediate to the 42-kDa active enzyme which should have occurred at 37 °C was completely blocked by MI”.

B3: type I collagenase in activated conditioned medium from TPA-treated rabbit synovial fibroblasts (protein)
chain: FVLTPGNPRWEQTHLTYRIENYTPDLSRADVDNAIEKAFQLWSNVTPLTFTKVSKGQADIMISFVRGDHRDNSPFDGPEGQLAHAFQPGLGIGGDVHFDEDDRWTKDFRNYNLYRVAAHELGHSLGLSHSTDIGALMYPNYMFSGDVQLAQDDIDGIQAIYGPSQNPSQPVGPQTPKVCDSKLTFDAITTIRGEIMFFKDRFYMRANPYYSEVELNFISVFWPHLPNGLQAAYEVAHRDEILFFKGNKYWTVQGQNELPGYPKDIHSSFGFPRSVNHIDAAVSEEDTGKTYFFVANKYWRYDEYKRSMDAGYPKMIEYDFPGIGNKVDAVFKKDGFFYFFHGTRQYKFDPKTKRILTLQKANSWFNCRKN
Turning to B3, in data set [5], the “SDS-PAGE and autoradiography of specific collagen cleavage; MI at about 2 µg/ml” value is reported as “also inhibited the specific collagen cleavage characteristic of mammalian collagenases”.

B4: rabbit fibroblast interstitial collagenase (42-kDa activated enzyme, APMA-activated) (protein)
chain: FVLTPGNPRWEQTHLTYRIENYTPDLSRADVDNAIEKAFQLWSNVTPLTFTKVSKGQADIMISFVRGDHRDNSPFDGPEGQLAHAFQPGLGIGGDVHFDEDDRWTKDFRNYNLYRVAAHELGHSLGLSHSTDIGALMYPNYMFSGDVQLAQDDIDGIQAIYGPSQNPSQPVGPQTPKVCDSKLTFDAITTIRGEIMFFKDRFYMRANPYYSEVELNFISVFWPHLPNGLQAAYEVAHRDEILFFKGNKYWTVQGQNELPGYPKDIHSSFGFPRSVNHIDAAVSEEDTGKTYFFVANKYWRYDEYKRSMDAGYPKMIEYDFPGIGNKVDAVFKKDGFFYFFHGTRQYKFDPKTKRILTLQKANSWFNCRKN
Consider B4, for which the “SDS-PAGE and autoradiography of 14C type I collagen cleavage products; 4.6 pmol MI, 2.1 pmol collagenase” value in data set [4] is reported as “The initial cleavage of the collagen as well as its further degradation were completely blocked by recombinant human MI”.

Values taken from patent US7553630.
